Earlier results in patent publication US20210330752A1, “FEED SUPPLEMENTS” (OmniGen Research, LLC, priority 2018, published 2021).

System: binding protein

Insulin-like growth factor-1 [IGF-1]
IGF-1 in plasma bound to a binding protein: more than 99%
